From patent publication US7358353B2, “Nucleic acid and corresponding protein named 158P1D7 useful in the treatment and detection of bladder and other cancers” (Agensys, Inc., priority 2000, dated 2008)

Molecular target: T1, 158P1D7 protein (Homo sapiens, UniProt Q9H5Y7)
T1 construct: from tissue; host or cells: formalin fixed, paraffin embedded tumor tissue from patients (bladder transitional cell carcinoma, breast ductal carcinoma, lung carcinoma)
Experiment: Immunohistochemistry of cancer patient specimens with anti-158P1D7 MAb (Table LVIII)
Description: FIG. 36. Detection of 158P1D7 protein by immunohistochemistry in various cancer patient specimens. Tissue was obtained from patients with bladder transitional cell carcinoma, breast ductal carcinoma and lung carcinoma. […] (C) breast infiltrating ductal carcinoma, moderately differentiated, (D) breast infiltrating ductal carcinoma, moderate to poorly differentiated, (E) lung squamous cell carcinoma, (F) lung adenocarcinoma, well differentiated.
The sections were dewaxed, rehydrated and treated with antigen retrieval solution (Antigen Retrieval Citra Solution; BioGenex, 4600 Norris Canyon Road, San Ramon, Calif., 94583) at high temperature. Sections were then incubated in mouse monoclonal anti-158P1D7 antibody, M15-68(2)22, for 3 hours. The slides were washed three times in buffer and further incubated with DAKO EnVision+™ peroxidase-conjugated goat anti-mouse immunoglobulin secondary antibody (DAKO Corporation, Carpenteria, Calif.) for 1 hour. The sections were then washed in buffer, developed using the DAB kit (SIGMA Chemicals), counterstained using hematoxylin, and analyzed by bright field microscopy. […] 49.3% of bladder transitional cell carcinoma samples tested were positive for 158P1D7 (Table LVIII).

[1] = Breast Carcinoma patient specimens
[2] = Lung Carcinoma patient specimens

158P1D7 protein
% No. Positive (Bladder TCC patient specimens): 49.3%
Number Positive (Bladder TCC patient specimens): 35
% No. Positive [1]: 90.9%
Number Positive [1]: 11
% No. Positive [2]: 23.1%
Number Positive [2]: 26
